The term stoichiometry N denotes a count of units in the complex or per binding partner.

This data set concerns the molecule itself. Description: SEC; HiLoad Superdex 200 HR column, 20 mM Na-Hepes, 200 mM NaCl, pH 7.0, 0.7 mL/min, 4 °C; relative molecular mass of the oligomeric forms estimated from a calibration curve with standard proteins.

B1: human phenylalanine hydroxylase (enzyme, UniProt P00439 1-452, looked up)
chain: MSTAVLENPGLGRKLSDFGQETSYIEDNCNQNGAISLIFSLKEEVGALAKVLRLFEENDVNLTHIESRPSRLKKDEYEFFTHLDKRSLPALTNIIKILRHDIGATVHELSRDKKKDTVPWFPRTIQELDRFANQILSYGAELDADHPGFKDPVYRARRKQFADIAYNYRHGQPIPRVEYMEEEKKTWGTVFKTLKSLYKTHACYEYNHIFPLLEKYCGFHEDNIPQLEDVSQFLQTCTGFRLRPVAGLLSSRDFLGGLAFRVFHCTQYIRHGSKPMYTPEPDICHELLGHVPLFSDRSFAQFSQEIGLASLGAPDEYIEKLATIYWFTVEFGLCKQGDSIKAYGAGLLSSFGELQYCLSEKPKLLPLELEKTAIQNYTVTEFQPLYYVAESFNDAKEKVRNFAATIPRPFSVRYDPYTQRIEVLDNTQQLKILADSINSEIGILCSALQKIK
notes: human phenylalanine hydroxylase (hPAH), expressed in E. coli as a fusion protein; a His tag is inferred from pTrcHis and the Ni resin; The tetrameric fraction from SEC was used as the fusion protein; also called hPAH; Human PAH; source: E. coli, fusion protein, purified (Ni-chelating resin, SEC)
B1: the “stoichiometry N” value is 4.

(Values after publication PMC8000282, “In Silico and In Vitro Tailoring of a Chitosan Nanoformulation of a Human Metabolic Enzyme” (Pharmaceutics, 2021).)
